Test results from article PMC8860610, “The fork protection complex recruits FACT to reorganize nucleosomes during replication” (Nucleic Acids Research, 2022).

Assays:
Settings in all cases: both partners purified
[1] = target: T1, Spt16 subunit on its own (Saccharomyces cerevisiae, UniProt P32558 1-1035); assay: pull-down; 1.5 μM GST fusion proteins (Tof1_N, Tof1_M, Tof1_C, Csm3) as bait on glutathione agarose, 3 μM fl FACT or FACT truncations as prey, 90 min at 4°C, washed with buffer G (300 mM NaCl), eluted with glutathione, SDS-PAGE
T1 construct: Spt16, Saccharomyces cerevisiae, without Pob3; also called Spt16 alone; source: yeast strain yBS2, purified by the same strategy as FACT

[2] = target: T2, full-length (fl) FACT (Spt16-Pob3) (Saccharomyces cerevisiae, UniProt P32558 1-1035; Q04636 1-552); assay: as above
T2 construct: Spt16, subunit of FACT, Saccharomyces cerevisiae; Pob3, subunit of FACT, Saccharomyces cerevisiae; His-tag cleaved by TEV protease; also called yFACT when together with Nhp6; source: yeast strain yBS2, galactose-induced, purified (HisTrap, TEV cleavage, Q column, Superdex 200)

[3] = target: T2, full-length (fl) FACT (Spt16-Pob3); assay: pull-down; 1.5 μM CBP-Csm3Tof1 as bait on Calmodulin Affinity Resin, 3 μM fl FACT as prey, 90 min at 4°C, washed with buffer C (25 mM HEPES-NaOH pH 7.6, 300 mM NaCl, 2 mM CaCl2), eluted with EDTA and EGTA, SDS-PAGE
[4] = target: T3, FACT consisting of Spt16 and GST-tagged Pob3 (Saccharomyces cerevisiae, UniProt P32558 1-1035; Q04636 1-552); assay: pull-down; 0.5 μM GST-Pob3Spt16 as bait with 1 μM replisome factor, on ice 30 min, immobilised on glutathione agarose 90 min at 4°C, washed with buffer G (50 mM HEPES-NaOH pH 7.6, 300 mM NaCl, 0.05% NP-40), eluted with glutathione, SDS-PAGE
T3 construct: Spt16, subunit of FACT, Saccharomyces cerevisiae; Pob3, subunit of FACT, Saccharomyces cerevisiae; The methods speak of a His-tag cleaved by TEV protease without telling which subunit carried it; also called GST-Pob3Spt16; GST-tagged Pob3-Spt16; source: yeast strain yBS2, galactose-induced, purified (HisTrap, Q column, Superdex 200)

B1: GST-tagged Tof1_C (938-1238 aa) (domain or fragment, Saccharomyces cerevisiae, UniProt P53840 938-1238, looked up)
chain: PSSSYLLRVRSEKDSFSHNEQDGWEGDDDYDYNDPYIVPDDQILSKSDAAYFKDLDNNASDKLKGTKFSKGIARSKKKDKRKRRKGEAKTNLPMFGDQDDERPQTVRERHGVFSKEFISDSEDDEDLMNPIFFENETYMRWLLDKNNGQLTEDRYIQFAKFAAERMNNGGVVTGDYTSLFGGSIPSIESIRATESSSFAPDKSLISLASHVASEMSIFDVNNNNNNQLSDDDVNSESRNSLGSSQPSNSQNMFQSEVYSRKESTKRSLEASAADESDEDEEAIRLFGKKSRVVLSQGDSDD
notes: Tof1, Saccharomyces cerevisiae, residues 938-1238, codon optimized for bacteria; Cloned into a pET GST-His6-TEV vector; no cleavage is described; source: E. coli BL21 (DE3) codon plus RIL, purified (GSTrap, Q column, Superdex 200)
B1: binds [1]; binds [2].

B2: Tof1-Csm3 (full-length, CBP-tagged) (complex, Saccharomyces cerevisiae)
chain 1: MSADLQQGTTNAADFSLTVLRARIALLATAIGGPDYTSQIDPPPYKLGDDCLACLKDLKRWFKLVDDQQKRWDVAMAVAEYRILTDDLLPILIDWENKCSLAAKLAKNNPDHEEFRNKAYYDKIALNCLQLLVLMTWPLIVTEQSSSNQITLYGELKKHQLVYKKTILSMESGKVLRAAIRLALDVIKIDRLSRTPRDNMVLKLVLNFFRNVIAIEPGEFTINTKKSMPKKGITSIDTLPPNVSMDDISLNTVISSFHKNKVFGFLLTLTSSLSKEFDQDFINIPLLEIMFYFTKDVNQELLFPRQFETGTHSKVVNKNESSSANNIVTSAGFELSKLLQKEHQMRKNVIKHTSARHSRFGGLLSIQTPDKTRLTVSGSQALVDEKIALQKLDDSKKWNKRIIKKHQSVAAEGLPNSLLNSQTGKAIFFTESNGKHFKEFINNFIDSGFNILLHSVTNYFTTEQDRMVTLEQVEYLLFFAWFVKYQLLRSKIDNSADIKQVSEALKEVTFILVSSLLRSAYDLKNWTVTHAGMIAFNELLNLVSRTKAAQEEDSTDIEFIVSRLFSDERIQLLSNLPKIGSKYSLQFMKSCIELTHSVLKVLEQYSDDKTLVIEGKSRRQKKFNISEGDITKLIEEENVDRDEALDILTSSLRSIEVNFQKVQANYMTEPVIETYINFLERFRELEDDSIKKVFSFFHRVFVQAKEQALLFRFDLIILLREMLSPDGLDRMSRSRKYVSQFSDYFLARLKKRLKKSPAWFVGLLFPPLHNSEVGFYQRYGEYNVLNNESMYAAPASQFKPIPDEEALPPSILLDMKYGVLVSTLLDDGKTELLDQLLKHITHTLDIFKSWLTVNVNAGKETVNPPNEYFTLTGVLNNDPIFKDKDYRALLLLIGYSIPRKINEPCFLPGTVEVSDLTVSCELVKKYLSTPFETPNGLPSSSYLLRVRSEKDSFSHNEQDGWEGDDDYDYNDPYIVPDDQILSKSDAAYFKDLDNNASDKLKGTKFSKGIARSKKKDKRKRRKGEAKTNLPMFGDQDDERPQTVRERHGVFSKEFISDSEDDEDLMNPIFFENETYMRWLLDKNNGQLTEDRYIQFAKFAAERMNNGGVVTGDYTSLFGGSIPSIESIRATESSSFAPDKSLISLASHVASEMSIFDVNNNNNNQLSDDDVNSESRNSLGSSQPSNSQNMFQSEVYSRKESTKRSLEASAADESDEDEEAIRLFGKKSRVVLSQGDSDD
chain 2: MDQDFDSLLLGFNDSDSVQKDPTVPNGLDGSVVDPTIADPTAITARKRRPQVKLTAEKLLSDKGLPYVLKNAHKRIRISSKKNSYDNLSNIIQFYQLWAHELFPKAKFKDFMKICQTVGKTDPVLREYRVSLFRDEMGMSFDVGTRETGQDLERQSPMVEEHVTSAEERPIVADSFAQDKRNVNNVDYDNDEDDDIYHLSYRNRRGRVLDERGNNETVLNNVVPPKEDLDALLKTFRVQGPVGLEENEKKLLLGWLDAHRKMEKGSMTEEDVQLIQSLEEWEMNDIEGQHTHYDLLPGGDEFGVDQDELDAMKEMGF
notes: Tof1, subunit of the fork protection complex, Saccharomyces cerevisiae (1238 aa by the printed truncation limits); Csm3, subunit of the fork protection complex, Saccharomyces cerevisiae; also called CBP-Csm3Tof1; CBP-tagged Csm3-Tof1
B2: binds [3]; binds [4].
